Results on one molecule are retold here after patent US20190263922A1 (TIGA TX, published 2019).

In assay [1] the target is T1, circular peptide YNCEPANPSEKNSPSTQYCYS (human, circular (cysteine-based loop, Pepscan technology); covalently linked to the plate).
T1 peptide: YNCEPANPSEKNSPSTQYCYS
Description: PepScan ELISA, 1 ug/mL mAb on plate-linked peptide. The protocol: (§1) Recognition of peptides by the CD20 mAb was assessed in a PepScan-based ELISA as previously described. ⁽²⁰⁾ Briefly, 1 μg/mL mAb was added to plates with covalently linked peptides and incubated overnight at 4° C. After extensive washing, bound mAb was detected with a HRP-linked rabbit-anti-mIgG (DakoCytomation) for 1 h at 25° C. Unbound detection Ab was washed away. Plates were developed using ABTS substrate and color development quantified using a CCD camera and an image-processing system.

Assay [2] addresses T2, linear peptide NSPSTQYGPANPSEK (human, also: covalently linked to the plate).
T2 peptide: NSPSTQYGPANPSEK
Description: PepScan ELISA, 1 ug/mL mAb on plate-linked peptide. How it is done: as §1

For assay [3], the target named is T3, human CD20 (human, UniProt P11836 1-297).
T3 construct: whole, on cells; Always presented on cells; also called MS4A1; CD20 WT
T3 sequence (looked up): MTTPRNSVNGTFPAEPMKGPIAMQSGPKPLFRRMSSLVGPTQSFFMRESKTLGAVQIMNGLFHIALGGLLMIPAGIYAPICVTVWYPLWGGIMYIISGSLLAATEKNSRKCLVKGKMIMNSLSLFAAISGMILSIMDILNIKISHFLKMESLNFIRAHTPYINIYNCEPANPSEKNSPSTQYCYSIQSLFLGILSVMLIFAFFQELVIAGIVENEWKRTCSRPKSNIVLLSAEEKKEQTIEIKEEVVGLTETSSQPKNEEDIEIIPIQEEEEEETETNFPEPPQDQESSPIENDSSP
In words: LigandTracer Green, 10 nM FITC-labeled mAb on SKBR3-CD20 cells, OneToOne fit, non-competitive dissociation. How it is done: (§2) Kinetics analysis of interactions between the mAbs and CD20 was performed by using the LigandTracer green Technology (Ridgeview Instruments AB). 10⁶ SKBR3-CD20 cells were seeded on one side of a 10 cm culture dish (Greiner) as target cell area and association of 10 nM FITC-labeled CD20 mAb was measured. For non-competitive or competitive dissociation, labeled mAb solution was replaced by RPMI culture medium or 100 nM unlabeled mAb of the same clone, respectively. Analysis was performed using an OneToOne fitting model in TraceDrawer (Ridgeview Instruments AB).
(§3) A slow Ab off-rate might favor the formation of Ab-Clq complexes, the first component of the classical complement pathway. […] To characterize interaction kinetics and affinity of mAbs, we used the LigandTracer technology to record real-time binding and dissociation of Abs to cellular receptors.

Assay [4] addresses T3, human CD20. In words: LigandTracer Green, 10 nM FITC-labeled mAb on SKBR3-CD20 cells, OneToOne fit, competitive dissociation (100 nM unlabeled mAb of the same clone). The protocol:
as §2, §3

Ends that are not written are not given here.

B1: m1 (mIgG2c-CD20 mAb) (antibody, V domains shown)
VH: QAYLQQSGAELVRPGASVKMSCKASGYTFTSYNLHWVKQTPRQGLEWIGAIYPGNGDTSYNQKFKGKATLTVDKSSSTAYMQLSRLTSEDSAVYFCARSNSYGSTYWYFDVWGTGTTVTVSS
VL: QIVLSQSPAVLFASPGEKVTMTCRARSSVSYMDWYQQKPRSSPKPWIYATSNLASGVPARFSGSGSGTSYSLTISRVEAEDAATYYCQQWTSNPPTFGSGTKLEIK
modifications: FITC- or Alexa647-labelled in the kinetic assays; label sites not given
notes: Mouse IgG2c hybridoma mAb; FITC- or Alexa647-labeled in the kinetic assays
Turning to B1, the binding result in assay [1] and in assay [2] was “binds” each time. In addition, the Kd with human CD20 [3] was found to be 1.05 nM; in the assay with human CD20 [4], 2.65 nM. For the same molecule, the koff with human CD20 [3] was 3.91e-05 s⁻¹; in the assay with human CD20 [4], 6.92e-05 s⁻¹. Also, the values for the association rate constant (kon) with human CD20 [3] and with human CD20 [4] were 37300 M⁻¹ s⁻¹ and 26100 M⁻¹ s⁻¹, respectively.
